Experimental data from patent US20240052044A1 (VIB VZW, published 2024).
Where a chain is given by its changes, count along the chain named. Numbers in names are those of the source. One block for each binder: values may come before it.

Target: T1, human CCR8 (human, UniProt P51685 1-355)
T1 construct: On stably transfected HEK293 cells or CHO-K1 cells; also called hCCR8
Experiment: competition flow cytometry on hCCR8 HEK293 cells; competitor FLAG3-tagged VHH-69

T1 sequence (P51685 whole entry): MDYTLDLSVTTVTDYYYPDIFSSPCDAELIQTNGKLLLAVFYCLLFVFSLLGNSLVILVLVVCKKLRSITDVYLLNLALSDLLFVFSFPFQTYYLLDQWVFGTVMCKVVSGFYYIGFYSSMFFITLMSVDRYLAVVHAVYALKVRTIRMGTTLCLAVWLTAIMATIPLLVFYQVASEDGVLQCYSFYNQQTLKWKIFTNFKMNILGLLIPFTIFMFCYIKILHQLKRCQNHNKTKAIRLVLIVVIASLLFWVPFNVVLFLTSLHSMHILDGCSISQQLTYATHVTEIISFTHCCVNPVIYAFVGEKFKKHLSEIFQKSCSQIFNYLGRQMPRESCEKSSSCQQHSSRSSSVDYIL

- IC50: 0.71 nM
B1: VHH-123 (VHH)
VHH: DVQLVESGGGLVQPGGSLRLSCTASGRTFTNYKSNYKMAWFRQAPGKARAFVGRTDWTGSSAIIANSVKGRFTISRDNAKNTVYLQMNSLRPEDTAVYYCAAGTTIGQYTYWGQGTLVTVSS
notes: also called VHH-69(E1D, N55S, D65G); not shown: C-terminal His6 tag (no FLAG3 tag)

- IC50: 0.25 nM
- fold more potent competition IC50 against the control VHH-69(E1D): 2 fold
B2: VHH-124 (VHH)
VHH: B1 VHH with S60K
notes: also called VHH-69(E1D, N55K, D65G); not shown: C-terminal His6 tag (no FLAG3 tag)
